Biological target: extracellular domain (25-250) of the human EPO receptor EPOR (human) (UniProt P19235)
Experiment: SEC + other: RP-HPLC-MS of the isolated complex after dissociation; proteins mixed in solution under dilute conditions (about 0.3 mg EPOR per mL); gel filtration over an analytical Superdex 75 column; complex peak analysed by non-reducing SDS-PAGE, then dissociated with 0.2 % TFA (1 h) and analysed by RP-HPLC-MS for the ratio of the two proteins

## EPO A (synthetic asialo glycoform of human erythropoietin 1-166 with three biantennary N-glycans terminating with galactose) (from UniProt P01588 28-193) (ligand)
  stoichiometry N: 1 EPO:EPOR

## EPO S (synthetic sialylated glycoform of human erythropoietin 1-166 with three alpha-2,6-sialylated biantennary N-glycans) (from UniProt P01588 28-193) (ligand)
  stoichiometry N: 1 EPO:EPOR

Reference: publication PMC9297946
